# According to paper PMC11098746 (2024):
# B1: ADP383 (protein)
# chain: GLKPSCAKEVKSCKGRCFERTFGNCRCDAACVELGNCCLDYQETCIEPEHIWTCNKFRCGEKRLTRSLCACSDDCKDKGDCCINYSSVCQGEKSWVEEPCESINEPQCPAGFETPPTLLFSLDGFRAEYLHTWGGLLPVISKLKKCGTYTKNMRPVYPTKTFPNHYSIVTGLYPESHGIIDNKMYDPKMNASFSLKSKEKFNPEWYKGEPIWVTAKYQGLKSGTFFWPGSDVEINGIFPDIYKMYNGSVPFEERILAVLQWLQLPKDERPHFYTLYLEEPDSSGHSYGPVSSEVIKALQRVDGMVGMLMDGLKELNLHRCLNLILISDHGMEQGSCKKYIYLNKYLGDVKNIKVIYGPAARLRPSDVPDKYYSFNYEGIARNLSCREPNQHFKPYLKHFLPKRLHFAKSDRIEPLTFYLDPQWQLALNPSERKYCGSGFHGSDNVFSNMQALFVGYGPGFKHGIEADTFENIEVYNLMCDLLNLTPAPNNGTHGSLNHLLKNPVYTPKHPKEVHPLVQCPFTRNPRDNLGCSCNPSILPIEDFQTQFNLTVAEEKIIKHETLPYGRPRVLQKENTICLLSQHQFMSGYSQDILMPLWTSYTVDRNDSFSTEDFSNCLYQDFRIPLSPVHKCSFYKNNTKVSYGFLSPPQLNKNSSGIYSEALLTTNIVPMYQSFQVIWRYFHDTLLRKYAEERNGVNVVSGPVFDFDYDGRCDSLENLRQKRRVIRNQEILIPTHFFIVLTSCKDTSQTPLHCENLDTLAFILPHRTDNSESCVHGKHDSSWVEELLMLHRARITDVEHITGLSFYQQRKEPVSDILKLKTHLPTFSQED
# modifications: bait human Fc-tagged dimer
# B2: ADP395 (protein)
# chain: FVNKDQIAKDVKQFYDQALQQAVVDDDANNAKAVVKTFHETLDCCGSSTLTALTTSVLKNNLCPSGSNIISNLFKEDCHQKIDDLFSGK
# modifications: bait human Fc-tagged dimer
# B3: ADP319 (protein)
# chain: MVSSGCRMRSLWFIIVISFLPNTEGFSRAALPFGLVRRELSCEGYSIDLRCPGSDVIMIESANYGRTDDKICDADPFQMENTDCYLPDAFKIMTQRCNNRTQCIVVTGSDVFPDPCPGTYKYLEVQYECVPYIFVCPGTLKAIVDSPCIYEAEQKAGAWCKDPLQAADKIYFMPWTPYRTDTLIEYASLEDFQNSRQTTTYKLPNRVDGTGFVVYDGAVFFNKERTRNIVKFDLRTRIKSGEAIINYANYHDTSPYRWGGKTDIDLAVDENGLWVIYATEQNNGMIVISQLNPYTLRFEATWETVYDKRAASNAFMICGVLYVVRSVYQDNESETGKNSIDYIYNTRLNRGEYVDVPFPNQYQYIAAVDYNPRDNQLYVWNNNFILRYSLEFGPPDPAQVPTTAVTITSSAELFKTIISTTSTTSQKGPMSTTVAGSQEGSKGTKPPPAVSTTKIPPITNIFPLPERFCEALDSKGIKWPQTQRGMMVERPCPKGTRGTASYLCMISTGTWNPKGPDLSNCTSHWVNQLAQKIRSGENAASLANELAKHTKGPVFAGDVSSSVRLMEQLVDILDAQLQELKPSEKDSAGRSYNKLQKREKTCRAYLKAIVDTVDNLLRPEALESWKHMNSSEQAHTATMLLDTLEEGAFVLADNLLEPTRVSMPTENIVLEVAVLSTEGQIQDFKFPLGIKGAGSSIQLSANTVKQNSRNGLAKLVFIIYRSLGQFLSTENATIKLGADFIGRNSTIAVNSHVISVSINKESSRVYLTDPVLFTLPHIDPDNYFNANCSFWNYSERTMMGYWSTQGCKLVDTNKTRTTCACSHL
# modifications: bait human Fc-tagged dimer
# B4: ADP121 (protein)
# chain: MGTLLLVLWLATRGSALYFHIGETEKKCFIEEIPDETMVIGNYRTQLYDKQREEYQPATPGLGMFVEVKDPEDKVILARQYGSEGRFTFTSHTPGEHQICLHSNSTKFSLFAGGMLRVHLDIQVGEHANDYAEIAAKDKLSELQLRVRQLVEQVEQIQKEQNYQRWREERFRQTSESTNQR
# modifications: bait human Fc-tagged dimer
# B5: ADP269 (protein)
# chain: SRHQAPCGPQAFAHAAVAADSKVCSDIGRAILQQQGSPVDATIAALVCTSVVNPQSMGLGGGVIFTIYNVTTGKVEVINARETVPASHAPSLLDQCAQALPLGTGAQWIGVPGELRGYAEAHRRHGRLPWAQLFQPTIALLRGGHVVAPVLSRFLHNSILRPSLQASTLRQLFFNGTEPLRPQDPLPWPALATTLETVATEGVEVFYTGRLGQMLVEDIAKEGSQLTLQDLAKFQPEVVDALEVPLGDYTLYSPPPPAGGAILSFILNVLRGFNFSTESMARPEGRVNVYHHLVETLKFAKGQRWRLGDPRSHPKLQNASRDLLGETLAQLIRQQIDGRGDHQLSHYSLAEAWGHGTGTSHVSVLGEDGSAVAATSTINTPFGAMVYSPRTGIILNNELLDLCERCPRGSGTTPSPAVSGDRVGGAPGRCWPPVPGERSPSSMVPSILINKAQGSKLVIGGAGGELIISAVAQAIMSKLWLGFDLRAAIAAPILHVNSKGCVEYEPNFSQEVQRGLQDRGQNQTQRPFFLNVVQAVSQEGACVYAVSDLRKSGEAAGY
# modifications: bait human Fc-tagged dimer
# B6: ADP293 (protein)
# chain: MALLPRLLLLLLLVFPATVLFRGGPRGLLAVAQDLTEDEETVEDSIIEDEDDEAEVEEDEPTDLVEDKEEEDVSGEPEASPSADTTILFVKGEDFPANNIVKFLVGFTNKGTEDFIVESLDASFRYPQDYQFYIQNFTALPLNTVVPPQRQATFEYSFIPAEPMGGRPFGLVINLNYKDLNGNVFQDAVFNQTVTVIEREDGLDGET
# modifications: bait human Fc-tagged dimer
# B7: ADP332 (protein)
# chain: MAPPGRRECPFPSWRFPGLLLAAMVLLLYSFSDACEEPPTFEAMELIGKPKPYYEIGERVDYKCKKGYFYIPPLATHTICDRNHTWLPVSDDACYRETCPYIRDPLNGQAVPANGTYEFGYQMHFICNEGYYLIGEEILYCELKGSVAIWSGKPPICEKVLCTPPPKIKNGKHTFSEVEVFEYLDAVTYSCDPAPGPDPFSLIGESTIYCGDNSVWSRAAPECKVVKCRFPVVENGKQISGFGKKFYYKATVMFECDKGFYLDGSDTIVCDSNSTWDPPVPKCLKVLPPSSTKPPALSHSVSTSSTTKSPASSASGPRPTYKPPVSNYPGYPKPEEGILDSLDV
# modifications: bait human Fc-tagged dimer
# B8: ADP270 (protein)
# chain: ALSPKCLDWWQEGPMYQIYPRSFKDSNKDGNGDLKGIQDKLDYITALNIKTVWITSFYKSSLKDFRYGVEDFREVDPIFGTMEDFENLVAAIHDKGLKLIIDFIPNHTSDKHIWFQLSRTRTGKYTDYYIWHDCTHENGKTIPPNNWLSVYGNSSWHFDEVRNQCYFHQFMKEQPDLNFRNPDVQEEIKEILRFWLTKGVDGFSLDAVKFLLEAKHLRDEIQVNKTQIPDTVTQYSELYHDFTTTQVGMHDIVRSFRQTMDQYSTEPGRYRFMGTEAYAESIDRTVMYYGLPFIQEADFPFNNYLSMLDTVSGNSVYEVITSWMENMPEGKWPNWMIGGPDSSRLTSRLGNQYVNVMNMLLFTLPGTPITYYGEEIGMGNIVAANLNESYDINTLRSKSPMQWDNSSNAGFSEASNTWLPTNSDYHTVNVDVQKTQPRSALKLYQDLSLLHANELLLNRGWFCHLRNDSHYVVYTRELDGIDRIFIVVLNFGESTLLNLHNMISGLPAKMRIRLSTNSADKGSKVDTSGIFLDKGEGLIFEHNTKNLLHRQTAFRDRCFVSNRACYSSVLNILYTSC
# modifications: bait human Fc-tagged dimer
# B9: ADP368 (protein)
# chain: MERASCLLLLLLPLVHVSATTPEPCELDDEDFRCVCNFSEPQPDWSEAFQCVSAVEVEIHAGGLNLEPFLKRVDADADPRQYADTVKALRVRRLTVGAAQVPAQLLVGALRVLAYSRLKELTLEDLKITGTMPPLPLEATGLALSSLRLRNVSWATGRSWLAELQQWLKPGLKVLSIAQAHSPAFSCEQVRAFPALTSLDLSDNPGLGERGLMAALCPHKFPAIQNLALRNTGMETPTGVCAALAAAGVQPHSLDLSHNSLRATVNPSAPRCMWSSALNSLNLSFAGLEQVPKGLPAKLRVLDLSCNRLNRAPQPDELPEVDNLTLDGNPFLVPGTALPHEGSMN
# modifications: bait human Fc-tagged dimer
# B10: ADP096 (protein)
# chain: GIQYQTRSPSVCLSEACVSVTSSILSSMDPTVDPCHDFFSYACGGWIKANPVPDGHSRWGTFSNLWEHNQAIIKHLLENSTASVSEAERKAQVYYRACMNETRIEELRAKPLMELIERLGGWNITGPWAKDNFQDTLQVVTAHYRTSPFFSVYVSADSKNSNSNVIQVDQSGLGLPSRDYYLNKTENEKVLTGYLNYMVQLGKLLGGGDEEAIRPQMQQILDFETALANITIPQEKRRDEELIYHKVTAAELQTLAPAINWLPFLNTIFYPVEINESEPIVVYDKEYLEQISTLINTTDRCLLNNYMIWNLVRKTSSFLDQRFQDADEKFMEVMYGTKKTCLPRWKFCVSDTENNLGFALGPMFVKATFAEDSKSIATEIILEIKKAFEESLSTLKWMDEETRKSAKEKADAIYNMIGYPNFIMDPKELDKVFNDYTAVPDLYFENAMRFFNFSWRVTADQLRKAPNRDQWSMTPPMVNAYYSPTKNEIVFPAGILQAPFYTRSSPKALNFGGIGVVVGHELTHAFDDQGREYDKDGNLRPWWKNSSVEAFKRQTECMVEQYSNYSVNGEPVNGRHTLGENIADNGGLKAAYRAYQNWVKKNGAEHSLPTLGLTNNQLFFLGFAQVWCSVRTPESSHEGLITDPHSPSRFRVIGSLSNSKEFSEHFRCPPGSPMNPPHKCEVW
# modifications: bait human Fc-tagged dimer
# B11: ADP334 (protein)
# chain: MASGRDERPPWRLGRLLLLMCLLLLGSSARAAHIKKAEATTTTTSAGAEAAEGQFDRYYHEEELESALREAAAAGLPGLARLFSIGRSVEGRPLWVLRLTAGLGSLIPEGDAGPDAAGPDAAGPLLPGRPQVKLVGNMHGDETVSRQVLIYLARELAAGYRRGDPRLVRLLNTTDVYLLPSLNPDGFERAREGDCGFGDGGPSGASGRDNSRGRDLNRSFPDQFSTGEPPALDEVPEVRALIEWIRRNKFVLSGNLHGGSVVASYPFDDSPEHKATGIYSKTSDDEVFKYLAKAYASNHPIMKTGEPHCPGDEDETFKDGITNGAHWYDVEGGMQDYNYVWANCFEITLELSCCKYPPASQLRQEWENNRESLITLIEKVHIGVKGFVKDSITGSGLENATISVAGINHNITTGRFGDFYRLLVPGTYNLTVVLTGYMPLTVTNVVVKEGPATEVDFSLRPTVTSVIPDTTEAVSTASTVAIPNILSGTSSSYQPIQPKDFHHHHFPDMEIFLRRFANEYPNITRLYSLGKSVESRELYVMEISDNPGVHEPGEPEFKYIGNMHGNEVVGRELLLNLIEYLCKNFGTDPEVTDLVHNTRIHLMPSMNPDGYEKSQEGDSISVIGRNNSNNFDLNRNFPDQFVQITDPTQPETIAVMSWMKSYPFVLSANLHGGSLVVNYPFDDDEQGLATYSKSPDDAVFQQIALSYSKENSQMFQGRPCKNMYPNEYFPHGITNGASWYNVPGGMQDWNYLQTNCFEVTIELGCVKYPLEKELPNFWEQNRRSLIQFMKQVHQGVRGFVLDATDGRGILNATISVAEINHPVTTYKTGDYWRLLVPGTYKITASARGYNPVTKNVTVKSEGAIQVNFTLVRSSTDSNNESKKGKGASSSTNDASDPTTKEFETLIKDLSAENGLESLMLRSSSNLALALYRYHSYKDLSEFLRGLVMNYPHITNLTNLGQSTEYRHIWSLEISNKPNVSEPEEPKIRFVAGIHGNAPVGTELLLALAEFLCLNYKKNPAVTQLVDRTRIVIVPSLNPDGRERAQEKDCTSKIGQTNARGKDLDTDFTNNASQPETKAIIENLIQKQDFSLSVALDGGSMLVTYPYDKPVQTVENKETLKHLASLYANNHPSMHMGQPSCPNKSDENIPGGVMRGAEWHSHLGSMKDYSVTYGHCPEITVYTSCCYFPSAARLPSLWADNKRSLLSMLVEVHKGVHGFVKDKTGKPISKAVIVLNEGIKVQTKEGGYFHVLLAPGVHNIIAIADGYQQQHSQVFVHHDAASSVVIVFDTDNRIFGLP
# modifications: bait human Fc-tagged dimer
# Biological target: Circumsporozoite protein (CSP) (Plasmodium falciparum (isolate 3D7), UniProt Q7K740)
# Assay: AVEXIS screen signal:noise (double-corrected)
# Circumsporozoite protein (CSP), sequence (Q7K740 19-374): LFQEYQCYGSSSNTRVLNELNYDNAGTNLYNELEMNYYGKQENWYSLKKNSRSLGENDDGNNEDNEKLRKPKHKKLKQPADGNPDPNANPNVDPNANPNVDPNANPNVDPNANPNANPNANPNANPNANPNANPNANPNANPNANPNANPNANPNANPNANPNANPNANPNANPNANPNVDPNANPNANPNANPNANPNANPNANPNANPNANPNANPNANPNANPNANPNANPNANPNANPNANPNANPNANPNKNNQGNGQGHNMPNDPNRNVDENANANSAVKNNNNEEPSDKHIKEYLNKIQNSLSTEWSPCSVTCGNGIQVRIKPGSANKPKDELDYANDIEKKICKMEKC
row,Binder,binding score
1,B1,0.856
2,B2,1.84
3,B3,1.9
4,B4,0.979
5,B5,0.734
6,B6,1.28
7,B7,0.982
8,B8,7.97
9,B9,1.29
10,B10,0.507
11,B11,1.2
